# Test results taken from PMC11266426, “Membrane remodeling by FAM92A1 during brain development regulates neuronal morphology, synaptic function, and cognition” (Nature Communications, 2024).
# B1: Human FAM92A1 BAR domain (residues 1-219), wild type (domain or fragment, UniProt A1XBS5 1-219, looked up)
# chain: MMRRTLENRNAQTKQLQTAVSNVEKHFGELCQIFAAYVRKTARLRDKADLLVNEINAYAATETPHLKLGLMNFADEFAKLQDYRQAEVERLEAKVVEPLKTYGTIVKMKRDDLKATLTARNREAKQLTQLERTRQRNPSDRHVISQAETELQRAAMDASRTSRHLEETINNFERQKMKDIKTIFSEFITIEMLFHGKALEVYTAAYQNIQNIDEDEDLE
# notes: FAM92A1 (CIBAR1), human, residues 1-219 cloned into the pHAT vector between SpeI and NsiI; residues 2-211 form the BAR domain in the crystal structure; Homodimer by crystal structure and SEC-MALS; The pHAT vector probably adds the His tag at the N-terminus (surmise); also called FAM92A1 N-terminal region; WT; source: E. coli BL21 (DE3), purified (Ni-NTA, gel filtration on Superdex 75)
# Biological target: the molecule itself
# Test: SEC-MALS; purified proteins on a Superdex 200 10/300 column at 4 °C, flow 0.5 mL/min; MiniDAWN light scattering and Optilab dRI detectors
protein,measurement,value
B1,stoichiometry N,2
